{"source": "paper PMC8629192", "target": "spike, depending on domain and variant", "test": "ELISA", "note": "pKd: −log10 of the molar value."}
{"substance": "LRRC15-Fc (from UniProt Q8TF66) (Fc fusion)", "values": [{"measurement": "pKd", "result": "6.83 to 7.37"}]}
